Measurements published in the Human Domainome abundance scans (Beltran et al. 2025).
± gives the uncertainty stated by the source.

B1: Tudor domain-containing protein 3, residues 554 to 611; numbered along this chain, Q9H7E2 (parent)
chain: KMWKPGDECFALYWEDNKFYRAEVEALHSSGMTAVVKFIDYGNYEEVLLSNIKPIQTE
B2: Far upstream element-binding protein 1, residues 184 to 257; numbered along this chain, Q96AE4 (parent)
chain: GNAVQEIMIPASKAGLVIGKGGETIKQLQERAGVKMVMIQDGPQNTGADKPLRITGDPYKVQQAKEMVLELIRD

Variants of: B1
Assay: abundance fitness (aPCA) (normalised: wild type 0, dead -1); higher = more abundant; growth selection in yeast, the domain comes from the species named
Settings: Homo sapiens

Abundance fitness: each site, then its substitutions
L48: G -0.479 ± 0.069
F38: G -0.845 ± 0.065 | P -0.941 ± 0.21 | D -0.764 ± 0.17 | V -0.787 ± 0.077 | K -1.13 ± 0.22 | E -0.997 ± 0.13 | R -0.894 ± 0.081
V24: G -0.994 ± 0.094 | Y -0.814 ± 0.15 | F -0.22 ± 0.096 | H -0.847 ± 0.18 | A -0.939 ± 0.13 | R -0.773 ± 0.061
F10: E 0.023 ± 0.081 | V -0.128 ± 0.064 | L 0.084 ± 0.064 | T -0.383 ± 0.087 | K -0.32 ± 0.11 | G -0.84 ± 0.077
Q56: F -0.071 ± 0.11 | S -0.054 ± 0.064 | L -0.07 ± 0.057 | V -0.02 ± 0.06
S29: F -0.186 ± 0.1 | L -0.125 ± 0.06 | I -0.05 ± 0.097 | C -0.116 ± 0.079 | P -0.03 ± 0.088 | H -0.05 ± 0.14 | M -0.009 ± 0.084
K53: H -0.213 ± 0.11 | G -0.711 ± 0.065 | A -0.276 ± 0.062
E58: H -0.304 ± 0.12 | C -0.062 ± 0.16 | F -0.314 ± 0.24 | W -0.068 ± 0.24 | A -0.133 ± 0.085 | R -0.111 ± 0.12
V47: W -0.846 ± 0.071 | Q -0.714 ± 0.1 | H -0.733 ± 0.17 | A -0.815 ± 0.097 | L -0.433 ± 0.063 | P -0.893 ± 0.11 | D -0.729 ± 0.36
D7: P -0.706 ± 0.1 | T -0.502 ± 0.09 | W -0.882 ± 0.093 | H -0.764 ± 0.15 | F -0.677 ± 0.15 | A -0.396 ± 0.068 | N -0.631 ± 0.093
A26: I -0.16 ± 0.16 | P -0.897 ± 0.2 | R 0.049 ± 0.083 | L -0.041 ± 0.089 | N -0.079 ± 0.16
I39: Y -0.006 ± 0.15 | G -0.361 ± 0.058 | S -0.111 ± 0.069
E45: A -0.041 ± 0.066
Y13: W -0.06 ± 0.075 | K -0.028 ± 0.093 | I -0.975 ± 0.24

Variants of: B2
Assay: as above
Settings: Homo sapiens

Abundance fitness: each site, then its substitutions
E70: N -0.127 ± 0.045 | T -0.056 ± 0.037 | A -0.04 ± 0.033 | Y -0.196 ± 0.044 | I -0.432 ± 0.058 | G -0.044 ± 0.029 | W -0.239 ± 0.037 | K 0.002 ± 0.036 | P -0.308 ± 0.04 | H -0.081 ± 0.05 | R -0.063 ± 0.026 | C -0.105 ± 0.039 | D 0.046 ± 0.046 | V -0.339 ± 0.033 | M -0.152 ± 0.04 | S -0.106 ± 0.031 | L -0.209 ± 0.03 | F -0.314 ± 0.049 | Q -0.072 ± 0.038
R73: W -0.033 ± 0.036 | K 0.015 ± 0.042 | M 0.001 ± 0.039 | L -0.1 ± 0.034 | D 0.092 ± 0.047 | S 0.044 ± 0.031 | C -0.002 ± 0.043 | I -0.15 ± 0.058 | V -0.038 ± 0.036 | H 0.031 ± 0.053 | N -0.004 ± 0.047 | P -0.208 ± 0.039 | A 0.111 ± 0.032 | F -0.197 ± 0.055 | T 0.043 ± 0.037 | E 0.088 ± 0.04 | Q 0.048 ± 0.044
D74: G 0.008 ± 0.034 | H -0.167 ± 0.051 | K -0.175 ± 0.07 | C -0.128 ± 0.059 | W -0.327 ± 0.076 | L -0.277 ± 0.047 | Y -0.197 ± 0.051 | S -0.111 ± 0.037 | T -0.076 ± 0.042 | Q -0.059 ± 0.061 | P -0.016 ± 0.041 | N -0.114 ± 0.048 | R -0.089 ± 0.039 | M -0.193 ± 0.067 | A -0.089 ± 0.039 | F -0.311 ± 0.063 | E -0.058 ± 0.052
I72: P -0.394 ± 0.036 | V 0.011 ± 0.03 | C 0.045 ± 0.04 | S -0.301 ± 0.032 | T -0.072 ± 0.034 | D -0.408 ± 0.049 | F -0.136 ± 0.045 | G -0.329 ± 0.028 | N -0.398 ± 0.052 | Q -0.24 ± 0.037 | E -0.295 ± 0.035 | R -0.498 ± 0.029 | L 0.01 ± 0.03 | H -0.524 ± 0.06 | K -0.405 ± 0.043 | M -0.009 ± 0.039 | W -0.353 ± 0.035 | A -0.173 ± 0.032 | Y -0.276 ± 0.044
L71: H -0.102 ± 0.051 | A -0.1 ± 0.032 | C -0.048 ± 0.041 | F -0.078 ± 0.045 | M -0.031 ± 0.04 | W -0.189 ± 0.033 | E -0.089 ± 0.036 | Q -0.082 ± 0.043 | K -0.001 ± 0.041 | Y -0.225 ± 0.055 | D -0.389 ± 0.046 | R -0.087 ± 0.027 | P -0.481 ± 0.042 | I 0.025 ± 0.048 | N -0.242 ± 0.049 | T -0.066 ± 0.035 | S -0.218 ± 0.031 | V -0.01 ± 0.03 | G -0.282 ± 0.027
L69: K -0.028 ± 0.035 | M 0.068 ± 0.04 | V -0.082 ± 0.032 | Y 0.008 ± 0.045 | R 0.011 ± 0.026 | S -0.015 ± 0.03 | P -0.346 ± 0.038 | T -0.021 ± 0.035 | N 0.019 ± 0.046 | Q 0.003 ± 0.036
